Values belong to the molecule of their own block, whether it stands above or below them.
Key:
[1] = target: 4-1BB-AP binding sites (putative cell-surface 4-1BB ligand) on mature B cells and macrophages; test: competition on A20 cells: 20 µg/ml rs4-1BB (50 fold excess) before 4-1BB-AP at 375 ng/ml as competitor; AP activity
[2] = target: T1, mutated p56lck, construct C1 (cys 20-ser) (murine, UniProt P06240 2-509); test: coimmunoprecipitation with 53A2, in vitro kinase labeling, HeLa cells
T1 construct: Expressed in HeLa cells with the vaccinia T7 system; also called mutant p56^lck C1
T1 sequence (P06240 other isoform, or with tags, fused parts or gaps limits assumed, change not shown): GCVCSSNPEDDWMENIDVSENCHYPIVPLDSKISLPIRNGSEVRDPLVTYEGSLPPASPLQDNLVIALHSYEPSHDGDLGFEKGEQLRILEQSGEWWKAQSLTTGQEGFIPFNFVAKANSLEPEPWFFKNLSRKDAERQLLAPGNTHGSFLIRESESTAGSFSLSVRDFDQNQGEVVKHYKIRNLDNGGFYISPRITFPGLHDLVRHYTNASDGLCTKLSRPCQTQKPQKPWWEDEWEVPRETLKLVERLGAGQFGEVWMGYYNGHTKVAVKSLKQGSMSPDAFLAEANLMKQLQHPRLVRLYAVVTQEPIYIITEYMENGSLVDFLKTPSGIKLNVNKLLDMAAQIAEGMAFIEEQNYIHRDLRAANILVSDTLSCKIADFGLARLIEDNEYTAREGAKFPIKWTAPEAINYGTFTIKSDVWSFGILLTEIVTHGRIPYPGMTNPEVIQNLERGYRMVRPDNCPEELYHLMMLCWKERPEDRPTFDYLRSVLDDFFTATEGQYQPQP
Excerpt: (§1) High levels of coexpression have been achieved previously with this system to facilitate interactions between CD4 and p56^lck. To ensure consistent expression of 4-1BB, the transfected HeLa cells were briefly labeled with [^35S] cysteine before harvest. 4-1BB expression was monitored by immunoprecipitation of ^35S-labeled 4-1BB with 53A2.
(§2) FIGS. 32a–c show an analysis of the association of 4-1BB and p56^lck HeLa cells. […] Lysates were immunoprecipitated with antibodies to p56^lck and 4-1BB and labeled with [γ-^32P] ATP by the in vitro kinase reaction. The positions of p56^lck and 4-1BB are indicated to the right. Total HeLa celll lysates were immunoblotted with antibody top56^lck assay thep56^lck expression. FIGS. 32b and 32c show an immune complex kinase assay. Aliquots of the saline lysates were immunoprecipitated with antip56^lck serum (FIG. 32b) or 53A2 (FIG. 32c) followed by the in vitro kinase reaction with [γ-^32P] ATP as described in the legend to FIG. 30. […] HeLa celis were grown to 80% confluency on 100-mm petri dishes in DMEM containing 10% FBS and antibiotics. Cells were infected with 1×10^8 pfu of vaccinia virus expressing T7 RNA polymerase (136) 30 min before transfection. DNA was transfected in liposomes (Lipofectin, GIBCO, BRL). 15 μg DNA and 50 μl liposome diluted into 5 ml serum-free DMEM were incubated in 12×75 mm polystyrene tubes at room temperature for 15 min. […]

[3] = target: T2, mutated p56lck, construct C2 (cys 23-ser) (murine, UniProt P06240 2-509); test: as above
T2 construct: Expressed in HeLa cells with the vaccinia T7 system; also called mutant p56^lck C2
T2 sequence (P06240 other isoform, or with tags, fused parts or gaps limits assumed, change not shown): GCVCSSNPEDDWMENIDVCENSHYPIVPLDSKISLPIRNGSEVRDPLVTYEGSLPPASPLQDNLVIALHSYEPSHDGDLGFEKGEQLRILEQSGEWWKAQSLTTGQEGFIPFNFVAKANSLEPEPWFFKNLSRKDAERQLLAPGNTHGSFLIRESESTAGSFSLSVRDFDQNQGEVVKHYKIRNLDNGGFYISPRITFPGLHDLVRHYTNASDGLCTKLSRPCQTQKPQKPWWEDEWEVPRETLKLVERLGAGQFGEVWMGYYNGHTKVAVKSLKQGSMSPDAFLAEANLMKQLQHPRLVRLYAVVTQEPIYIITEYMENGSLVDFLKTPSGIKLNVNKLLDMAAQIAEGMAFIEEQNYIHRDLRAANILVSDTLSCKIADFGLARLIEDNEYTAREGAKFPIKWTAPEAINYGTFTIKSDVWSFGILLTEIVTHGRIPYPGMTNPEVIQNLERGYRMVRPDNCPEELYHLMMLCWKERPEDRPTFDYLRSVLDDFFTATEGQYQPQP
Excerpt: as §1, §2

[4] = target: T3, human vitronectin (human, UniProt P04004 20-478); test: ELISA, human vitronectin immobilized on microtiter plates, AP activity (data not shown)
T3 construct: Bought protein
T3 sequence (P04004 20-478 limits assumed): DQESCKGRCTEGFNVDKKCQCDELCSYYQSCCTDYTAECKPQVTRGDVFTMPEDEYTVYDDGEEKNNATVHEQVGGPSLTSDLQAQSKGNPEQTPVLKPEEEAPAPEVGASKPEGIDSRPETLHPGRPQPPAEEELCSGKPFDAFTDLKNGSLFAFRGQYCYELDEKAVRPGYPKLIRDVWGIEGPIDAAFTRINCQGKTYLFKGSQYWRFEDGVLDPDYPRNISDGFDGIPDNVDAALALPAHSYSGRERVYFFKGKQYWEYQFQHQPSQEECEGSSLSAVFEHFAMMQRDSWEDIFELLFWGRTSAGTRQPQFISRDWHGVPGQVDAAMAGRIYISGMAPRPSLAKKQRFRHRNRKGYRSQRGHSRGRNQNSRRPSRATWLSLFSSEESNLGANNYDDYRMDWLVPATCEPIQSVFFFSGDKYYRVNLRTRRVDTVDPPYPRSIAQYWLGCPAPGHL
Description: Chalupny and colleagues (132) have proposed that 4-1BB Rg, a fusion protein consisting of the extracellular domain of 4-1BB and the Fc region of human IgG, bound to the extracellular matrix (ECM). The highest levels of 4-1BB Rg binding was to human vitronectin. In data not shown, an ELISA was performed using 4-1BB-AP and human vitronectin (Yelios Pharmaceuticals/GIBCO-BRL, Grand Island, N.Y.) immobilized at 0.007 μg–10 μg per well on microtiter plates. No binding of 4-1BB-AP based on AP activity was observed. To rule out the possibility that 4-1BB-AP was binding to proteins extrinsically attached to the cell surface (possible extracellular matrix components), B-cell lymphomas were washed in acid conditions prior to the binding assay (115). 4-1BB-AP still bound specifically to mature B-cell lymphomas (data not shown). We are currently determining whether a 4-1BB-ligand specifically expressed on B cells and macrophages exists, and whether 4-1BB-AP may bind to the ECM under particular binding conditions. It is possible that the ECM could facilitate the binding of 4-1BB to a specific cell-surface ligand.

percent of 4-1BB-AP binding blocked [1]: 70%
Molecule: recombinant soluble 4-1BB protein (extracellular domain of mouse 4-1BB) (from UniProt P20334 24-187) (receptor)

binding result [2]: no binding | binding result [3]: no binding
B1: mouse receptor protein 4-1BB (full length) (receptor)
chain: VQNSCDNCQPGTFCRKYNPVCKSCPPSTFSSIGGQPNCNICRVCAGYFRFKKFCSSTHNAECECIEGFHCLGPQCTRCEKDCRPGQELTKQGCKTCSLGTFNDQNGTGVCRPWTNCSLDGRSVLKTGTTEKDVVCGPPVVSFSPSTTISVTPEGGPGGHSLQVLTLFLALTSALLLALIFITLLFSVLKWIRKKFPHIFKQPFKKTTGAAQEEDACSCRCPQEEEGGGGGYEL
notes: Native on T cells (CTLL-R8, CTLL-2, F1, splenic T cells, thymocytes) or recombinant full length in Sf-21 and HeLa cells; also tested in lysates and blots; Seen as 30 kDa monomer, 55 kDa dimer and possibly 110 kDa tetramer; homodimer not proven; also called 4-1BBP; 4-1BBL (full length cDNA construct)

B2: 4-1BB-AP fusion protein (extracellular domain of 4-1BB fused to human placental alkaline phosphatase) (other)
chain: VQNSCDNCQPGTFCRKYNPVCKSCPPSTFSSIGGQPNCNICRVCAGYFRFKKFCSSTHNAECECIEGFHCLGPQCTRCEKDCRPGQELTKQGCKTCSLGTFNDQNGTGVCRPWTNCSLDGRSVLKTGTTEKDVVCGPPVVSFSPSTTISVTPEGGPGGHSLQVL
notes: Signal peptide and entire extracellular domain of 4-1BB up to the first hydrophobic residue of the transmembrane region, joined in frame upstream of AP; secreted by NIH-3T3 transfectants; also called 4-1BB-Alkaline Phosphatase; 85 kDa fusion protein; not shown: human placental alkaline phosphatase as coded in the APtag-1 vector
binding result [4]: no binding (tested: 0.007 µg-10 µg per well)

Source: patent US6974863 (INDIANA UNIVERSITY RESEARCH AND TECHNOLOGY, dated 2005)
